Test results as given in patent publication US20230242590A1.
Read-outs that look alike come from different tables or passages of the source.

Key:
Assay in all cases: UV peptide exchange + HLA class I ELISA
[1] = biological target: HLA-B*07:02 (human)
[2] = biological target: HLA-B*08:01 (human); details: remark: other sources report otherwise
[3] = biological target: HLA-A*02:01 (human)
[4] = biological target: HLA-A*01:01 (human); details: remark: other sources report otherwise
[5] = biological target: HLA-A*11:01 (human)
[6] = biological target: HLA-A*03:01 (human)
[7] = biological target: HLA-A*24:02 (human)
[8] = remark: other sources report otherwise

Q: WPKFAVPNL (modifications not checked) [p404-412] was tested. Which Bindings% (of positive control) [1, 8] did it give?
A: The Bindings% (of positive control) was 70.5%.

Q: With LPVCAFSSA (modifications not checked) [x58-66] as the binder, how does the Bindings% (of positive control) [1, 8] read?
A: The Bindings% (of positive control) was 52.8%.

Q: For LPIHTAELL (modifications not checked) [p723-731], which Bindings% (of positive control) [1, 8] is on record?
A: Its Bindings% (of positive control) is 32.3%.

Q: For GPCALRFTS (modifications not checked) [x67-75], which Bindings% (of positive control) [1] is on record?
A: Its Bindings% (of positive control) is 26.9%.

Q: With HLSLRGLPV (modifications not checked) [x52-60] as the binder, how does the Bindings% (of positive control) [2] read?
A: Its Bindings% (of positive control) is 79.8%.

Q: How did the Bindings% (of positive control) [2] turn out when VLHKRTLGL (modifications not checked) [x92-100] was run?
A: Its Bindings% (of positive control) is 60.8%.

Q: With FAVPNLQSL (modifications not checked) [p407-415] as the binder, how does the Bindings% (of positive control) [3] read?
A: Its Bindings% (of positive control) is 33.3%.

Q: VLCLRPVGA (modifications not checked) [x15-23] was tested. Which Bindings% (of positive control) [3, 8] did it give?
A: Its Bindings% (of positive control) is 31.7%.

Q: With TTDLEAYFK (modifications not checked) [x105-113] as the binder, how does the Bindings% (of positive control) [4] read?
A: The Bindings% (of positive control) was 41.7%.

Q: RVHFASPLH (modifications not checked) [p829-837] was tested. Which Bindings% (of positive control) [5] did it give?
A: The Bindings% (of positive control) was 39.5%.

Q: What about the Bindings% (of positive control) [6] of the same binder?
A: Its Bindings% (of positive control) is 68.8%.

Q: Which Bindings% (of positive control) [4] does the source give for MSTTDLEAY (modifications not checked) [x103-111] here?
A: Its Bindings% (of positive control) is 30.2%.

Q: With STTDLEAYFK (modifications not checked) [x104-113] as the binder, how does the Bindings% (of positive control) [5, 8] read?
A: Its Bindings% (of positive control) is 98.7%.

Q: PLDKGIKPYY (modifications not checked) [p124-133] was tested. Which Bindings% (of positive control) [4] did it give?
A: The Bindings% (of positive control) was 26.7%.

Q: With SFCGSPYSW (modifications not checked) [p167-175] as the binder, how does the Bindings% (of positive control) [7] read?
A: Its Bindings% (of positive control) is 84%.

Q: Which Bindings% (of positive control) [7] does the source give for GYPALMPLY (modifications not checked) [p650-658] here?
A: The Bindings% (of positive control) was 42.7%.

Q: With VFADATPTGW (modifications not checked) [p697-706] as the binder, how does the Bindings% (of positive control) [7] read?
A: The Bindings% (of positive control) was 40.4%.

Q: CGYPALMPLY (modifications not checked) [p649-658] was tested. Which Bindings% (of positive control) [7] did it give?
A: The Bindings% (of positive control) was 38.1%.
